Results: IntAct's records for PubMed 31515488

B1: Mothers against decapentaplegic homolog 4 (Homo sapiens), Q13485 (parent)
chain: MDNMSITNTPTSNDACLSIVHSLMCHRQGGESETFAKRAIESLVKKLKEKKDELDSLITAITTNGAHPSKCVTIQRTLDGRLQVAGRKGFPHVIYARLWRWPDLHKNELKHVKYCQYAFDLKCDSVCVNPYHYERVVSPGIDLSGLTLQSNAPSSMMVKDEYVHDFEGQPSLSTEGHSIQTIQHPPSNRASTETYSTPALLAPSESNATSTANFPNIPVASTSQPASILGGSHSEGLLQIASGPQPGQQQNGFTGQPATYHHNSTTTWTGSRTAPYTPNLPHHQNGHLQHHPPMPPHPGHYWPVHNELAFQPPISNHPAPEYWCSIAYFEMDVQVGETFKVPSSCPIVTVDGYVDPSGGDRFCLGQLSNVHRTEAIERARLHIGKGVQLECKGEGDVWVRCLSDHAVFVQSYYLDREAGRAPGDAVHKIYPSAYIKVFDLRQCHRQMQQQAATAQAAAAAQAAAVAGNIPGPGSVGGIAPAISLSAAAGIGVDDLRRLCILRMSFVKGWGPDYPRQSIKETPCWIEIHLHRALQLLDEVLHTMPIADPQPLD
B2: Heat shock factor protein 2 (Homo sapiens), Q03933 (parent)
chain: MKQSSNVPAFLSKLWTLVEETHTNEFITWSQNGQSFLVLDEQRFAKEILPKYFKHNNMASFVRQLNMYGFRKVVHIDSGIVKQERDGPVEFQHPYFKQGQDDLLENIKRKVSSSKPEENKIRQEDLTKIISSAQKVQIKQETIESRLSELKSENESLWKEVSELRAKHAQQQQVIRKIVQFIVTLVQNNQLVSLKRKRPLLLNTNGAQKKNLFQHIVKEPTDNHHHKVPHSRTEGLKPRERISDDIIIYDVTDDNADEENIPVIPETNEDVISDPSNCSQYPDIVIVEDDNEDEYAPVIQSGEQNEPARESLSSGSDGSSPLMSSAVQLNGSSSLTSEDPVTMMDSILNDNINLLGKVELLDYLDSIDCSLEDFQAMLSGRQFSIDPDLLVDLFTSSVQMNPTDYINNTKSENKGLETTKNNVVQPVSEEGRKSKSKPDKQLIQYTAFPLLAFLDGNPASSVEQASTTASSEVLSSVDKPIEVDELLDSSLDPEPTQSKLVRLEPLTEAEASEATLFYLCELAPAPLDSDMPLLDS
B3: cGMP-dependent protein kinase 1 (Homo sapiens), Q13976 (parent)
chain: MSELEEDFAKILMLKEERIKELEKRLSEKEEEIQELKRKLHKCQSVLPVPSTHIGPRTTRAQGISAEPQTYRSFHDLRQAFRKFTKSERSKDLIKEAILDNDFMKNLELSQIQEIVDCMYPVEYGKDSCIIKEGDVGSLVYVMEDGKVEVTKEGVKLCTMGPGKVFGELAILYNCTRTATVKTLVNVKLWAIDRQCFQTIMMRTGLIKHTEYMEFLKSVPTFQSLPEEILSKLADVLEETHYENGEYIIRQGARGDTFFIISKGTVNVTREDSPSEDPVFLRTLGKGDWFGEKALQGEDVRTANVIAAEAVTCLVIDRDSFKHLIGGLDDVSNKAYEDAEAKAKYEAEAAFFANLKLSDFNIIDTLGVGGFGRVELVQLKSEESKTFAMKILKKRHIVDTRQQEHIRSEKQIMQGAHSDFIVRLYRTFKDSKYLYMLMEACLGGELWTILRDRGSFEDSTTRFYTACVVEAFAYLHSKGIIYRDLKPENLILDHRGYAKLVDFGFAKKIGFGKKTWTFCGTPEYVAPEIILNKGHDISADYWSLGILMYELLTGSPPFSGPDPMKTYNIILRGIDMIEFPKKIAKNAANLIKKLCRDNPSERLGNLKNGVKDIQKHKWFEGFNWEGLRKGTLTPPIIPSVASPTDTSNFDSFPEDNDEPPPDDNSGWDIDF

Variants of: B1
Conditions: with smad9_human SMAD9, O15198
For L533R, the “effect of a mutation on the interaction” value was “disrupting interaction strength”.

Variants of: B1
Conditions: with smad3_human SMAD3, P84022
smad3_human SMAD3, P84022, sequence (P84022 whole entry, looked up): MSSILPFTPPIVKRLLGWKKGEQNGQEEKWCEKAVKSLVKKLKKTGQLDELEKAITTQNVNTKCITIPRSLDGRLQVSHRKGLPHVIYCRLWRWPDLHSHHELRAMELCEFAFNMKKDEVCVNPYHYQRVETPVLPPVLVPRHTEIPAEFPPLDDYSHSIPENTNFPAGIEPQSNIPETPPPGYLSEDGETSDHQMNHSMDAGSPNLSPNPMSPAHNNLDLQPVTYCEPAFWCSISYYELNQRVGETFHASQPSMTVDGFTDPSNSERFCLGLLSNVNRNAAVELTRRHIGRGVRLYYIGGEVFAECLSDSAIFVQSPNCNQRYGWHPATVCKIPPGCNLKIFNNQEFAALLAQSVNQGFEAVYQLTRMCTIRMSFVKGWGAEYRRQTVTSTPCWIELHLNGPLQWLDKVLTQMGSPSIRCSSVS
L533R was tested, and the “effect of a mutation on the interaction” value was “disrupting interaction strength”.
In the case of R531W, the “effect of a mutation on the interaction” value is reported as “disrupting interaction strength”.

Variants of: B1
Conditions: with ews_human EWSR1, Q01844
ews_human EWSR1, Q01844, sequence (Q01844 whole entry): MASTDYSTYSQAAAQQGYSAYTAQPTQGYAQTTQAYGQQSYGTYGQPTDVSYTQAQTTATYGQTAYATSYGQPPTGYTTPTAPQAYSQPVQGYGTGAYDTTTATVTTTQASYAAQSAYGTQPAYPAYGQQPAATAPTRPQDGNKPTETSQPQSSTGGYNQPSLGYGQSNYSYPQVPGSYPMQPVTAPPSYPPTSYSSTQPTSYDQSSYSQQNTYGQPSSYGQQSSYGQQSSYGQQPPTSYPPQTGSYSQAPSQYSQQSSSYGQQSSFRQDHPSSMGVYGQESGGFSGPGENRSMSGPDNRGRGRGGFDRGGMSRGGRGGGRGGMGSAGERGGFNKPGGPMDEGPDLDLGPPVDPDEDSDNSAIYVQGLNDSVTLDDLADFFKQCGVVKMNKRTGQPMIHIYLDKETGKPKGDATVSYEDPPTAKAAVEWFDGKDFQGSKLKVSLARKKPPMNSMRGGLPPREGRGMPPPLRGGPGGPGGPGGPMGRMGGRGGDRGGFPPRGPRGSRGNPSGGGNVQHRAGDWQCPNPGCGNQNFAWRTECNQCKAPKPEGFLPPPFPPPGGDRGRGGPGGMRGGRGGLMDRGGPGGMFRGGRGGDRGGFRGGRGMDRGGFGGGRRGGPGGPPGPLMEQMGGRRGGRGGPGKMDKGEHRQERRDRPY
R531W was tested, and the “effect of a mutation on the interaction” value was “with no effect”.

Variants of: B2
Conditions: with mtus2_human MTUS2, Q5JR59
mtus2_human MTUS2, Q5JR59, sequence (Q5JR59 whole entry): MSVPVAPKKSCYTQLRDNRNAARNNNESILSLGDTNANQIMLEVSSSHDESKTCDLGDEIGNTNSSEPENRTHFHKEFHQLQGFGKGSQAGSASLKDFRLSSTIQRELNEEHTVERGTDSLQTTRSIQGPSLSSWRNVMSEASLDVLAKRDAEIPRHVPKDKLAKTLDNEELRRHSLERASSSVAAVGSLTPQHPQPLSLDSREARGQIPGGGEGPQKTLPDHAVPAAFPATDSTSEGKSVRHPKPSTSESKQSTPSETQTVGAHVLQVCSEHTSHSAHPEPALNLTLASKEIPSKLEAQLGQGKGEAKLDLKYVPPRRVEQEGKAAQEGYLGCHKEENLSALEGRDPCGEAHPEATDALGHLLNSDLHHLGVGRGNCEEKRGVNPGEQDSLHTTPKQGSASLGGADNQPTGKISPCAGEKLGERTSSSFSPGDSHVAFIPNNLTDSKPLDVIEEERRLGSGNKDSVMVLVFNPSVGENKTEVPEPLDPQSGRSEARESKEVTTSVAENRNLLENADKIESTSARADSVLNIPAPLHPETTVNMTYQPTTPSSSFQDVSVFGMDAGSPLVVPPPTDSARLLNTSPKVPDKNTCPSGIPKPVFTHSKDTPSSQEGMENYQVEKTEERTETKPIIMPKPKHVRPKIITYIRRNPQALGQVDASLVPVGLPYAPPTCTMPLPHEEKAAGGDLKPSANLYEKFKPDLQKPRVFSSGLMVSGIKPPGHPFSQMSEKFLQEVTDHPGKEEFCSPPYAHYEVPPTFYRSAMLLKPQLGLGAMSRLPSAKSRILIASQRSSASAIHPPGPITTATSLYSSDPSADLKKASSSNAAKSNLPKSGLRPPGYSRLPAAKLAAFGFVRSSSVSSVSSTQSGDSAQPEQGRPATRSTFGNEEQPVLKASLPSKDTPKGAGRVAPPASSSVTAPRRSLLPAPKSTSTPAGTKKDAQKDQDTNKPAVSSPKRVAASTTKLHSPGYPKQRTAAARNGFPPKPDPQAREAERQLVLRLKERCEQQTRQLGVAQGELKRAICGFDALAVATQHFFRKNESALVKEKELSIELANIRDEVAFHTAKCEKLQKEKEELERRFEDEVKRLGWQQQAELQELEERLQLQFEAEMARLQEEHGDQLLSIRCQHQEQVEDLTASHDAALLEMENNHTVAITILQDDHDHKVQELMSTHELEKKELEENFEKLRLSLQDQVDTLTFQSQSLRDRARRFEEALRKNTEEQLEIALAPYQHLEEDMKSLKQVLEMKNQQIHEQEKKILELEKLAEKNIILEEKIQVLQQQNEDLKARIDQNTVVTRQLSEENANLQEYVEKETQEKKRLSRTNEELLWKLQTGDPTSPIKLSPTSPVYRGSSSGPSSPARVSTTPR
With MKQSSNVPAFLSKLWTLVEETHTNEFITWSQNGHSFLVLDEQRFAKEILPKYFKHNNMASFVRQLNMYGFRKVVHIDSGIVKQERDGPVEFQHPYFKQGQDDLLENIKRKVSSSKPEENKIRQEDLTKIISSAQKVQIKQETIESRLSELKSENESLWKEVSELRAKHAQQQQVIRKIVQFIVTLVQNNQLVSLKRKRPLLLNTNGAQKKNLFQHIVKEPTDNHHHKVPHSRTEGLKPRERISDDIIIYDVTDDNADEENIPVIPETNEDVISDPSNCSQYPDIVIVEDDNEDEYAPVIQSGEQNEPARESLSSGSDGSSPLMSSAVQLNGSSSLTSEDPVTMMDSILNDNINLLGKVELLDYLDSIDCSLEDFQAMLSGRQFSIDPDLLVDLFTSSVQMNPTDYINNTKSENKGLETTKNNVVQPVSEEGRKSKSKPDKQLIQYTAFPLLAFLDGNPASSVEQASTTASSEVLSSVDKPIEVDELLDSSLDPEPTQSKLVRLEPLTEAEASEATLFYLCELAPAPLDSDMPLLDS [Q34H] the “effect of a mutation on the interaction” value was “with no effect”.
MKQSSNVPAFLSKLWTLVEETHTNEFITWSQNGQSFLVLDEQRFAKEILPKYFKHNNMASFVRQLNMYGFRKVVHIDSGIVKQERDGPVEFQHPYFKQGQDDLLENIKRKVSSSKPEENKIRQEDLTKIISSAQKVQIKQETIESRLSELKSENESLWKEVSELRAKHAQQQQVIRKIVQFIVTLVQNNQLVSLKRKRPLLLNTNGAQKKNLFQHIVKEPTVNHHHKVPHSRTEGLKPRERISDDIIIYDVTDDNADEENIPVIPETNEDVISDPSNCSQYPDIVIVEDDNEDEYAPVIQSGEQNEPARESLSSGSDGSSPLMSSAVQLNGSSSLTSEDPVTMMDSILNDNINLLGKVELLDYLDSIDCSLEDFQAMLSGRQFSIDPDLLVDLFTSSVQMNPTDYINNTKSENKGLETTKNNVVQPVSEEGRKSKSKPDKQLIQYTAFPLLAFLDGNPASSVEQASTTASSEVLSSVDKPIEVDELLDSSLDPEPTQSKLVRLEPLTEAEASEATLFYLCELAPAPLDSDMPLLDS [D222V] was tested, and the “effect of a mutation on the interaction” value was “with no effect”.

Variants of: B2
Conditions: with nup62_human NUP62, P37198
nup62_human NUP62, P37198, sequence (P37198 whole entry): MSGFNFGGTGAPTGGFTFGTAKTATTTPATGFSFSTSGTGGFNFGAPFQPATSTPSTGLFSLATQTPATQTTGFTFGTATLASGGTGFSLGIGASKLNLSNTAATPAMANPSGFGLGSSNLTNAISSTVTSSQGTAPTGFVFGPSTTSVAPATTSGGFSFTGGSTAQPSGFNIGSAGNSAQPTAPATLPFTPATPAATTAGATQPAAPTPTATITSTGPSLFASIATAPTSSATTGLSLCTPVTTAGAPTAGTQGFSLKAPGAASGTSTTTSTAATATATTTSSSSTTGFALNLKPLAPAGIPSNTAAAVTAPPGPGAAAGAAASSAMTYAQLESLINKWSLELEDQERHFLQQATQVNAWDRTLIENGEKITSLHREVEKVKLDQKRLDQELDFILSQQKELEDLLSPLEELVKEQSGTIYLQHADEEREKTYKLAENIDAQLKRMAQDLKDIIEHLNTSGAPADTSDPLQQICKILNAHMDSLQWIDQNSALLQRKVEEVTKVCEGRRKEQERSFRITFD
MKQSSNVPAFLSKLWTLVEETHTNEFITWSQNGHSFLVLDEQRFAKEILPKYFKHNNMASFVRQLNMYGFRKVVHIDSGIVKQERDGPVEFQHPYFKQGQDDLLENIKRKVSSSKPEENKIRQEDLTKIISSAQKVQIKQETIESRLSELKSENESLWKEVSELRAKHAQQQQVIRKIVQFIVTLVQNNQLVSLKRKRPLLLNTNGAQKKNLFQHIVKEPTDNHHHKVPHSRTEGLKPRERISDDIIIYDVTDDNADEENIPVIPETNEDVISDPSNCSQYPDIVIVEDDNEDEYAPVIQSGEQNEPARESLSSGSDGSSPLMSSAVQLNGSSSLTSEDPVTMMDSILNDNINLLGKVELLDYLDSIDCSLEDFQAMLSGRQFSIDPDLLVDLFTSSVQMNPTDYINNTKSENKGLETTKNNVVQPVSEEGRKSKSKPDKQLIQYTAFPLLAFLDGNPASSVEQASTTASSEVLSSVDKPIEVDELLDSSLDPEPTQSKLVRLEPLTEAEASEATLFYLCELAPAPLDSDMPLLDS [Q34H] was tested, and the “effect of a mutation on the interaction” value was “with no effect”.
In the case of MKQSSNVPAFLSKLWTLVEETHTNEFITWSQNGQSFLVLDEQRFAKEILPKYFKHNNMASFVRQLNMYGFRKVVHIDSGIVKQERDGPVEFQHPYFKQGQDDLLENIKRKVSSSKPEENKIRQEDLTKIISSAQKVQIKQETIESRLSELKSENESLWKEVSELRAKHAQQQQVIRKIVQFIVTLVQNNQLVSLKRKRPLLLNTNGAQKKNLFQHIVKEPTVNHHHKVPHSRTEGLKPRERISDDIIIYDVTDDNADEENIPVIPETNEDVISDPSNCSQYPDIVIVEDDNEDEYAPVIQSGEQNEPARESLSSGSDGSSPLMSSAVQLNGSSSLTSEDPVTMMDSILNDNINLLGKVELLDYLDSIDCSLEDFQAMLSGRQFSIDPDLLVDLFTSSVQMNPTDYINNTKSENKGLETTKNNVVQPVSEEGRKSKSKPDKQLIQYTAFPLLAFLDGNPASSVEQASTTASSEVLSSVDKPIEVDELLDSSLDPEPTQSKLVRLEPLTEAEASEATLFYLCELAPAPLDSDMPLLDS [D222V], the “effect of a mutation on the interaction” value is reported as “with no effect”.

Variants of: B2
Conditions: with wdr5_human WDR5, P61964
With MKQSSNVPAFLSKLWTLVEETHTNEFITWSQNGHSFLVLDEQRFAKEILPKYFKHNNMASFVRQLNMYGFRKVVHIDSGIVKQERDGPVEFQHPYFKQGQDDLLENIKRKVSSSKPEENKIRQEDLTKIISSAQKVQIKQETIESRLSELKSENESLWKEVSELRAKHAQQQQVIRKIVQFIVTLVQNNQLVSLKRKRPLLLNTNGAQKKNLFQHIVKEPTDNHHHKVPHSRTEGLKPRERISDDIIIYDVTDDNADEENIPVIPETNEDVISDPSNCSQYPDIVIVEDDNEDEYAPVIQSGEQNEPARESLSSGSDGSSPLMSSAVQLNGSSSLTSEDPVTMMDSILNDNINLLGKVELLDYLDSIDCSLEDFQAMLSGRQFSIDPDLLVDLFTSSVQMNPTDYINNTKSENKGLETTKNNVVQPVSEEGRKSKSKPDKQLIQYTAFPLLAFLDGNPASSVEQASTTASSEVLSSVDKPIEVDELLDSSLDPEPTQSKLVRLEPLTEAEASEATLFYLCELAPAPLDSDMPLLDS [Q34H] the “effect of a mutation on the interaction” value was “with no effect”.
For MKQSSNVPAFLSKLWTLVEETHTNEFITWSQNGQSFLVLDEQRFAKEILPKYFKHNNMASFVRQLNMYGFRKVVHIDSGIVKQERDGPVEFQHPYFKQGQDDLLENIKRKVSSSKPEENKIRQEDLTKIISSAQKVQIKQETIESRLSELKSENESLWKEVSELRAKHAQQQQVIRKIVQFIVTLVQNNQLVSLKRKRPLLLNTNGAQKKNLFQHIVKEPTVNHHHKVPHSRTEGLKPRERISDDIIIYDVTDDNADEENIPVIPETNEDVISDPSNCSQYPDIVIVEDDNEDEYAPVIQSGEQNEPARESLSSGSDGSSPLMSSAVQLNGSSSLTSEDPVTMMDSILNDNINLLGKVELLDYLDSIDCSLEDFQAMLSGRQFSIDPDLLVDLFTSSVQMNPTDYINNTKSENKGLETTKNNVVQPVSEEGRKSKSKPDKQLIQYTAFPLLAFLDGNPASSVEQASTTASSEVLSSVDKPIEVDELLDSSLDPEPTQSKLVRLEPLTEAEASEATLFYLCELAPAPLDSDMPLLDS [D222V], the “effect of a mutation on the interaction” value was “with no effect”.

Variants of: B2
Conditions: with tpm3_human TPM3, P06753
tpm3_human TPM3, P06753, sequence (P06753 whole entry): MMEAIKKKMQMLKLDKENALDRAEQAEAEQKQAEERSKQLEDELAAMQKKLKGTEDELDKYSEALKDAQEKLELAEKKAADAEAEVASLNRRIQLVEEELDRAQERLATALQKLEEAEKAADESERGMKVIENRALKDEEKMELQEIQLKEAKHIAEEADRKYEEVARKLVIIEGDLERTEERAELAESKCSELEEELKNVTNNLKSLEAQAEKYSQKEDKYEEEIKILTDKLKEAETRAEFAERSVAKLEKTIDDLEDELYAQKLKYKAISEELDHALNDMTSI
MKQSSNVPAFLSKLWTLVEETHTNEFITWSQNGHSFLVLDEQRFAKEILPKYFKHNNMASFVRQLNMYGFRKVVHIDSGIVKQERDGPVEFQHPYFKQGQDDLLENIKRKVSSSKPEENKIRQEDLTKIISSAQKVQIKQETIESRLSELKSENESLWKEVSELRAKHAQQQQVIRKIVQFIVTLVQNNQLVSLKRKRPLLLNTNGAQKKNLFQHIVKEPTDNHHHKVPHSRTEGLKPRERISDDIIIYDVTDDNADEENIPVIPETNEDVISDPSNCSQYPDIVIVEDDNEDEYAPVIQSGEQNEPARESLSSGSDGSSPLMSSAVQLNGSSSLTSEDPVTMMDSILNDNINLLGKVELLDYLDSIDCSLEDFQAMLSGRQFSIDPDLLVDLFTSSVQMNPTDYINNTKSENKGLETTKNNVVQPVSEEGRKSKSKPDKQLIQYTAFPLLAFLDGNPASSVEQASTTASSEVLSSVDKPIEVDELLDSSLDPEPTQSKLVRLEPLTEAEASEATLFYLCELAPAPLDSDMPLLDS [Q34H] was tested, and the “effect of a mutation on the interaction” value was “with no effect”.
For MKQSSNVPAFLSKLWTLVEETHTNEFITWSQNGQSFLVLDEQRFAKEILPKYFKHNNMASFVRQLNMYGFRKVVHIDSGIVKQERDGPVEFQHPYFKQGQDDLLENIKRKVSSSKPEENKIRQEDLTKIISSAQKVQIKQETIESRLSELKSENESLWKEVSELRAKHAQQQQVIRKIVQFIVTLVQNNQLVSLKRKRPLLLNTNGAQKKNLFQHIVKEPTVNHHHKVPHSRTEGLKPRERISDDIIIYDVTDDNADEENIPVIPETNEDVISDPSNCSQYPDIVIVEDDNEDEYAPVIQSGEQNEPARESLSSGSDGSSPLMSSAVQLNGSSSLTSEDPVTMMDSILNDNINLLGKVELLDYLDSIDCSLEDFQAMLSGRQFSIDPDLLVDLFTSSVQMNPTDYINNTKSENKGLETTKNNVVQPVSEEGRKSKSKPDKQLIQYTAFPLLAFLDGNPASSVEQASTTASSEVLSSVDKPIEVDELLDSSLDPEPTQSKLVRLEPLTEAEASEATLFYLCELAPAPLDSDMPLLDS [D222V], the “effect of a mutation on the interaction” value was “with no effect”.

Variants of: B3
Conditions: with rbtn2_human LMO2, P25791
With N267S the “effect of a mutation on the interaction” value was “with no effect”.

Variants of: B3
Conditions: with zn646_human ZNF646, O15015
zn646_human ZNF646, O15015, sequence (O15015 whole entry): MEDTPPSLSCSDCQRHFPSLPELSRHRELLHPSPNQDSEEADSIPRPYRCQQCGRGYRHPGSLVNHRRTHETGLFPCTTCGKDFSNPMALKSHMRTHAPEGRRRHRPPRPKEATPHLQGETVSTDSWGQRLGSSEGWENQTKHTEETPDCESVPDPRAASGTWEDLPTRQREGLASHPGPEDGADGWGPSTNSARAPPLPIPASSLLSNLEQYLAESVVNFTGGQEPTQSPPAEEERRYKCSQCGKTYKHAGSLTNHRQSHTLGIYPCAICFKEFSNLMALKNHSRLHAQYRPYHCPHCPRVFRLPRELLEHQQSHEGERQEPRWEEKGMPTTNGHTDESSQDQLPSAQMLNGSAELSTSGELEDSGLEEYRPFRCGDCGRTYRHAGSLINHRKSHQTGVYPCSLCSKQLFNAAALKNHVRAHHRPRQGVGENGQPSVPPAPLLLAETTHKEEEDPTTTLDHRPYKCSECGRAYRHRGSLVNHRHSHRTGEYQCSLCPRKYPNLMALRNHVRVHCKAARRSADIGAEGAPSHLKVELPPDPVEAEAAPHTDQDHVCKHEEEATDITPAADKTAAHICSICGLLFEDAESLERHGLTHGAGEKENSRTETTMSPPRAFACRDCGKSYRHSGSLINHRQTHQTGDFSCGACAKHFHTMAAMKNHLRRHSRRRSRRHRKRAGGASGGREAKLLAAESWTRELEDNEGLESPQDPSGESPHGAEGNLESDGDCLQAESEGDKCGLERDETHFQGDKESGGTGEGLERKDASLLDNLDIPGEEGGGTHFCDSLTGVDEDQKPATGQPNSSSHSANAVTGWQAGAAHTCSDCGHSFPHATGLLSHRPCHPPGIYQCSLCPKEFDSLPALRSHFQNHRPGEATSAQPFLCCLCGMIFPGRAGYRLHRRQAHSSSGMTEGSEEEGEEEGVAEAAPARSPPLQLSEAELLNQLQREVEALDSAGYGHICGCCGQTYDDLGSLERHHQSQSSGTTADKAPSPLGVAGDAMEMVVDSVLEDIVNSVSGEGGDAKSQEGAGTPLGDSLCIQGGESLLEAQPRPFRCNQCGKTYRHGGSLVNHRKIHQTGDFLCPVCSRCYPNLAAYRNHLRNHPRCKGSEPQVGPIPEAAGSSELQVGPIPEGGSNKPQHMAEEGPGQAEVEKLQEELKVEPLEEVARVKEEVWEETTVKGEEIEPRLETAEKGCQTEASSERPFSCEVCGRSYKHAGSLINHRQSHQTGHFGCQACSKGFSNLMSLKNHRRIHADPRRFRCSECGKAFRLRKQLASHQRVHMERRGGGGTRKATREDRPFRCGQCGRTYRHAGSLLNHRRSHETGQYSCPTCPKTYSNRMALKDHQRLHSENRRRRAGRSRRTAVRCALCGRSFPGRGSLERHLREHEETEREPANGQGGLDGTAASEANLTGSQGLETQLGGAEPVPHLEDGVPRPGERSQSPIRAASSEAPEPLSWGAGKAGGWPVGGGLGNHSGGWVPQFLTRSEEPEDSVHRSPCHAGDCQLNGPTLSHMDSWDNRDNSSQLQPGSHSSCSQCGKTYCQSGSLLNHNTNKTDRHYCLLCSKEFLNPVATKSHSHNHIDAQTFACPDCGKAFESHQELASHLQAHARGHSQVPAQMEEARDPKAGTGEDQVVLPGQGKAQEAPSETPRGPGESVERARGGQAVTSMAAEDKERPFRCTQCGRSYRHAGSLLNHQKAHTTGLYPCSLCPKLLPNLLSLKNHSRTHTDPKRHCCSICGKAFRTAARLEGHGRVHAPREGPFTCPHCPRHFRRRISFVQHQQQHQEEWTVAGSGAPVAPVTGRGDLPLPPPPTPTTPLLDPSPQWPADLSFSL
With N267S the “effect of a mutation on the interaction” value was “with no effect”.
